Molecular target: Hemagglutinin of A/Wisconsin/67/2005 (H3N2) overexpressed on 3T3 cells (Influenza A virus A/Wisconsin/67/2005 …)
Test: cell-based or functional assay

B1: H1H14611N2 (antibody, V domains shown)
VH: EVQLVESGGGLVKPGGSLRLSCAASGFTFSGFSMNWVRQVPGKGLEWVSSISTSGNYMYYADSVKGRFTISRDNAKKSFSLQMNSLRAEDSAIYYCARGGGYNWNLFDYWGQGSLVTVSS
VL: EIVLTQSPGTLSLSPGERATLSCRASQSLNSNYLAWYQQKPGQAPRLLIYGASSRATGIPDRFSGSGSGTDFTLTITRLESEDFAVYYCQQYGNSPLTFGGGTKVEIK
- EC50, ADCC with human donor PBMCs (CytoTox-Glo): 0.146 nM
- EC50, FcγRIIIA activation in the ADCC-Glo reporter bioassay (Promega): 0.871 nM

— patent US20210371505A1 (Regeneron, published 2021)
